Laboratory results from patent US20080242601A1 (INSTITUTE PASTEUR, published 2008).
Read-outs that look alike come from different tables or passages of the source. * marks the point of attachment. BODIPYFLEthylmaleimide = Cc1cc(C)n2c1C=C1C=CC(CCC(=O)NCCN3C(=O)CC(*)C3=O)=[N+]1[B-]2(F)F

T1: NEMO (NF-kB essential modulator), murine (murine, UniProt O88522 1-412)
T1 chain: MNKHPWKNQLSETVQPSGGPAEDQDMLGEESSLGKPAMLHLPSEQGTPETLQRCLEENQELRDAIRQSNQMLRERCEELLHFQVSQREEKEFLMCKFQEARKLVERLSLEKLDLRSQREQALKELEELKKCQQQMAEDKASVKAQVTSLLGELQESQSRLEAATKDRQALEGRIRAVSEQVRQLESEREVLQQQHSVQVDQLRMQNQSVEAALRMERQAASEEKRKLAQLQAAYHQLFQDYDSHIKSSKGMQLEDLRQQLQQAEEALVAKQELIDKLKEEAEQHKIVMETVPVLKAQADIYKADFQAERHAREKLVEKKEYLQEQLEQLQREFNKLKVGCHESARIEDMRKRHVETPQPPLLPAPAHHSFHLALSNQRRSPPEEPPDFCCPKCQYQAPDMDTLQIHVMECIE

B1: CC2 (WT) (peptide)
peptide: Ac-SKGMQLEDLRQQLQQAEEALVAKQELIDKLKEEAEQHKIV-NH2
notes: Synthetic peptide; Forms a trimer by gel filtration at 10 uM; also called CC2 peptide; CC2 wild type
B2: BODIPY-Ant-LZ (WT) (peptide)
peptide: Ac-C(BODIPYFLEthylmaleimide)RQIKIWFQNRRMKWKKLKAQADIYKADFQAERHAREKLVEKKEYLQEQLEQLQREFNKL-NH2
notes: Synthetic fusion peptide; also called cell permeable LZ
B3: BODIPY-Ant-NLM-DR (peptide)
peptide: Ac-C(BODIPYFLEthylmaleimide)RQIKIWFQNRRMKWKKLKAQADIYKARFQAERHAREK-NH2
SMILES: CC[C@H](C)[C@H](NC(=O)[C@H](CC(=O)O)NC(=O)[C@H](C)NC(=O)[C@H](CCC(N)=O)NC(=O)[C@H](C)NC(=O)[C@H](CCCCN)NC(=O)[C@H](CC(C)C)NC(=O)[C@H](CCCCN)NC(=O)[C@H](CCCCN)NC(=O)[C@H](Cc1c[nH]c2ccccc12)NC(=O)[C@H](CCCCN)NC(=O)[C@H](CCSC)NC(=O)[C@H](CCCNC(=N)N)NC(=O)[C@H](CCCNC(=N)N)NC(=O)[C@H](CC(N)=O)NC(=O)[C@H](CCC(N)=O)NC(=O)[C@H](Cc1ccccc1)NC(=O)[C@H](Cc1c[nH]c2ccccc12)NC(=O)[C@@H](NC(=O)[C@H](CCCCN)NC(=O)[C@@H](NC(=O)[C@H](CCC(N)=O)NC(=O)[C@H](CCCNC(=N)N)NC(=O)[C@H](CSC1CC(=O)N(CCNC(=O)CCC2=[N+]3C(=Cc4c(C)cc(C)n4[B-]3(F)F)C=C2)C1=O)NC(C)=O)[C@@H](C)CC)[C@@H](C)CC)C(=O)N[C@@H](Cc1ccc(O)cc1)C(=O)N[C@@H](CCCCN)C(=O)N[C@@H](C)C(=O)N[C@@H](CCCNC(=N)N)C(=O)N[C@@H](Cc1ccccc1)C(=O)N[C@@H](CCC(N)=O)C(=O)N[C@@H](C)C(=O)N[C@@H](CCC(=O)O)C(=O)N[C@@H](CCCNC(=N)N)C(=O)N[C@@H](Cc1c[nH]cn1)C(=O)N[C@@H](C)C(=O)N[C@@H](CCCNC(=N)N)C(=O)N[C@@H](CCC(=O)O)C(=O)N[C@@H](CCCCN)C(N)=O
B4: BODIPY-TAT-NLM-DR (peptide)
peptide: Ac-C(BODIPYFLEthylmaleimide)YGRKKRRQRRRLKAQADIYKARFQAERHAREK-NH2
SMILES: CC[C@H](C)[C@H](NC(=O)[C@H](CC(=O)O)NC(=O)[C@H](C)NC(=O)[C@H](CCC(N)=O)NC(=O)[C@H](C)NC(=O)[C@H](CCCCN)NC(=O)[C@H](CC(C)C)NC(=O)[C@H](CCCNC(=N)N)NC(=O)[C@H](CCCNC(=N)N)NC(=O)[C@H](CCCNC(=N)N)NC(=O)[C@H](CCC(N)=O)NC(=O)[C@H](CCCNC(=N)N)NC(=O)[C@H](CCCNC(=N)N)NC(=O)[C@H](CCCCN)NC(=O)[C@H](CCCCN)NC(=O)[C@H](CCCNC(=N)N)NC(=O)CNC(=O)[C@H](Cc1ccc(O)cc1)NC(=O)[C@H](CSC1CC(=O)N(CCNC(=O)CCC2=[N+]3C(=Cc4c(C)cc(C)n4[B-]3(F)F)C=C2)C1=O)NC(C)=O)C(=O)N[C@@H](Cc1ccc(O)cc1)C(=O)N[C@@H](CCCCN)C(=O)N[C@@H](C)C(=O)N[C@@H](CCCNC(=N)N)C(=O)N[C@@H](Cc1ccccc1)C(=O)N[C@@H](CCC(N)=O)C(=O)N[C@@H](C)C(=O)N[C@@H](CCC(=O)O)C(=O)N[C@@H](CCCNC(=N)N)C(=O)N[C@@H](Cc1c[nH]cn1)C(=O)N[C@@H](C)C(=O)N[C@@H](CCCNC(=N)N)C(=O)N[C@@H](CCC(=O)O)C(=O)N[C@@H](CCCCN)C(N)=O
B5: BODIPY-R9-NLM-DR (peptide)
peptide: Ac-C(BODIPYFLEthylmaleimide)RRRRRRRRRLKAQADIYKARFQAERHAREK-NH2
modifications: not fully specified
B6: BODIPY-R7-NLM-DR (peptide)
peptide: Ac-C(BODIPYFLEthylmaleimide)RRRRRRRLKAQADIYKARFQAERHAREK-NH2
SMILES: CC[C@H](C)[C@H](NC(=O)[C@H](CC(=O)O)NC(=O)[C@H](C)NC(=O)[C@H](CCC(N)=O)NC(=O)[C@H](C)NC(=O)[C@H](CCCCN)NC(=O)[C@H](CC(C)C)NC(=O)[C@H](CCCNC(=N)N)NC(=O)[C@H](CCCNC(=N)N)NC(=O)[C@H](CCCNC(=N)N)NC(=O)[C@H](CCCNC(=N)N)NC(=O)[C@H](CCCNC(=N)N)NC(=O)[C@H](CCCNC(=N)N)NC(=O)[C@H](CCCNC(=N)N)NC(=O)[C@H](CSC1CC(=O)N(CCNC(=O)CCC2=[N+]3C(=Cc4c(C)cc(C)n4[B-]3(F)F)C=C2)C1=O)NC(C)=O)C(=O)N[C@@H](Cc1ccc(O)cc1)C(=O)N[C@@H](CCCCN)C(=O)N[C@@H](C)C(=O)N[C@@H](CCCNC(=N)N)C(=O)N[C@@H](Cc1ccccc1)C(=O)N[C@@H](CCC(N)=O)C(=O)N[C@@H](C)C(=O)N[C@@H](CCC(=O)O)C(=O)N[C@@H](CCCNC(=N)N)C(=O)N[C@@H](Cc1c[nH]cn1)C(=O)N[C@@H](C)C(=O)N[C@@H](CCCNC(=N)N)C(=O)N[C@@H](CCC(=O)O)C(=O)N[C@@H](CCCCN)C(N)=O

Experiments:
[1] = molecular target: T1, NEMO (NF-kB essential modulator), murine; test: cell-based or functional assay
[2] = molecular target: the molecule itself; test: gel filtration (Superdex 75) at 10 µM, self-association
Method: The oligomeric states of peptides were determined by filtration as described in Traincard et al., 2003. In brief, 500 μl samples were loaded on a Superdex 75 HR 10/30 column equilibrated in 50 mM Tris-HCl pH 8.0 containing 200 mM NaCl and 0.1 mM DDM, at a constant flow rate of 0.4 ml/min. The presence of the DDM detergent was added in the equilibrium buffer to minimize the adsorption in the column and to increase the peptide recovery. The column was calibrated in the same equilibrium buffer with blue dextran 2000 (void volume), dithioerythritol (total volume), bovine serum albumin (67 kDa, Rs=35.2 Å), ovalbumine (43 kDa, Rs=27.5 Å), chymotrypsinogen A (25 kDa, Rs=21.1 Å), ribonuclease A (13.7 kDa, Rs=16.4 Å), cytochrome C (12.4 kDa, Rs=17.7 Å) and aprotinin (6.5 KDa, Rs=13.5 Å).
The antennapedia sequence is a protein transduction domain (PTD) which adopts an alpha-helical amphiphatic structure (Prochiantz, 2000, Curr. Opin. Cell Biol.). […] To examine the effect of N-fusion of the antennapedia peptide on the oligomerization properties of the CC2 and the LZ peptides, the present inventors analyzed peptides containing or not containing the antennapedia sequence at their N-terminus by gel filtration. […]

[3] = molecular target: T1, NEMO (NF-kB essential modulator), murine; test: cell-based or functional assay
CC2 (WT) = molecular target: B1; test: fluorescence anisotropy, fixed BODIPY-Ant-LZ (0.1 µM) with CC2
Method: (A) Direct titration of BODIPY-Ant-CC2 (1 μM) with CC2 by fluorescence anitropy. The concentration of CC2 was determined by amino acid analysis. Anisotropy values of BODIPY-Ant-CC2 in milliunits (mA) were plotted against an increasing concentration of the CC2 peptide. […] The two dashed lines represent a stoichiometric titration and intersect at an CC2 concentration of 16 μM. Given the 1 μM concentration of the BODIPY-Ant-CC2, this gives a complex stoechiometrie of 0.8. (B) Direct titration of BODIPY-Ant-LZ (0.1 μM with CC2 by fluorescence anitropy. The anisotropy values of the BODIPY-Ant-LZ alone (white bar) or in the presence of the CC2 peptide (30 μM, grey bar; 100 μM, black bar) are given in milliunits (mA).
Anisotropy measurements were performed with a PTI Quantamaster fluorometer equipped with polarizers for the excitation and emission beams. This instrument uses a PMT in the L-configuration. […] Steady-state fluorescence anisotropy was expressed as millianisotropy (mA) and was calculated according to the equations: (1) A=(I_VV-GIVH)/(IVV+2GIVH); (2) G=IHV/IHH.; where A is anisotropy, G is a correction factor for wavelength-dependent distortion and I is the fluorescence intensity component (subscript referring to the vertical and horizontal positioning at the excitation and emission polarizers, respectively). […]

[4] = molecular target: T1, NEMO (NF-kB essential modulator), murine; test: cell-based or functional assay

BODIPY-Ant-CC2 (WT) (peptide)
IC50 of inhibition of LPS-induced NF-κB activation (β-galactosidase reporter, 70Z3-C3 cells) [1]: 22000 nM
fold reduction of LPS-induced NF-κB activation at 10 µM (stringent β-galactosidase assay) [1]: 1.7 fold
reduction of NF-κB activity at 20 µM after LPS stimulation of B lymphocytes [1]: 70%

B1
binding result [2]: binds

B2
IC50 of inhibition of LPS-induced NF-κB activation (β-galactosidase reporter, 70Z3-C3 cells) [3]: 3000 nM
fold reduction of LPS-induced NF-κB activation at 10 µM (stringent β-galactosidase assay) [3]: 5.8 fold
binding result (CC2 (WT)): binds

B3
IC 50 (inhibition of NF-κB activation pathway) [4]: 1100 nM

B4
IC 50 (inhibition of NF-κB activation pathway) [4]: 1000 nM

B5
IC 50 (inhibition of NF-κB activation pathway) [4]: 900 nM

B6
IC 50 (inhibition of NF-κB activation pathway) [4]: 900 nM
